{"source": "patent US20240352121A1", "about": "“LAIR-1 AGONISTIC ANTIBODIES AND METHODS OF USE THEREOF” (NEXTCURE, INC., priority 2023, published 2024)", "molecules": {"B1": {"name": "LAIR-1 mAb: humanized agonist anti-LAIR-1 mAb, IgG1 backbone; h11B3 VL-2 (SEQ ID NO: 16), h11B3 VH-3 (SEQ ID NO: 27) (antibody, V domains shown)", "VH": "EVQLVESGGGLVQPGGSLKLSCAASGFTFNTNAMYWVRQAPGKGLEWVGRIRSKSSNYATYYAASVKGRFTISRDDSKNTLYLQMNSLKTEDTAVYYCVRGGSGFFAYWGQGTLVTVSS", "VL": "DIQMTQSPSSLSASLGDRVTITCKASEDIYIRLAWYQQKPGKAPRLLISTATSLETGVPSRFSGSGSGTDYTFTISSLQPEDIATYYCQQYWSTPYTFGGGTRLEIK", "modifications": "IgG1 constant regions; Synthetic: h11B3 VH-3; Synthetic: h11B3 VL-2"}}, "key": {"[1]": {"tested_on": "SoC-resistant AML", "test": "PDX model with BM from a VEN/AZA-resistant patient", "set-up": "species or system NSG-SGM3 mice", "conditions": "mouse, in vivo", "description": "Ex vivo killing of VEN/AZA-treated AML patient leukemic cells (FIG. 7A) or T cells or NK cells (FIG. 7B). Values normalized to vehicle control. Lines represent linear regression of NC525 concentration versus normalized cell killing. […] FIGS. 7D and 7E show in vivo leukemic growth as measured by whole-body luminescence of MV4-11-luciferase cells (FIG. 7D) or survival (FIG. 7E) of CDX mice treated with 10 mg/kg isotype control (gray) or NC525 (red) or 100 mg/kg VEN (pink) or 0.5 mg/kg AZA (blue) or combination therapy (green or yellow, respectively). BLoD, below limit of detection. n=9 mice per group. P values determined by 2-way ANOVA or log-rank (Mantel-Cox) test, respectively. FIGS. 7F and 7G show leukemic growth in the blood (FIG. 7F) and in the spleen and BM (FIG. 7G) at week 8 after transplant of AML PDX mice treated with vehicle (gray), VEN/AZA (blue), NC525 (red), or VEN/AZA plus NC525 (green). n=5-10 mice per group. AML cells in spleen and BM compared from 4-5 mice per group. Data are shown as the mean±SEM. P values determined by 2-way ANOVA or 1-way ANOVA with multiple comparisons.\nNewborn (3-5 day from birth) NSG-SGM3 pups were sub-lethally (200 cGy) irradiated. […] Leukemia progression in recipient mice was measured by flow cytometry by quantifying the percent of human CD33^+ human CD45^+ cells in peripheral blood at weeks 4, 6, and 10 weeks post-transplant."}, "[2]": {"tested_on": "MV4-11-Luc cells", "test": "In-vitro phagocytosis (ADCP) assay, mouse bone marrow macrophages with MV4-11-Luc cells", "assay_type": "cell-based, human", "conditions": "20 μg/ml, 16 hours", "description": "Mouse BMM was generated with 100 ng/ml M-CSF (Cat #416-ML-500) using seed BMM cells at 1e5/well in 24 well plate. Stain was done with Cell trace violet (Thermofisher). Target MV411 cells were labeled with PKH26 (Sigma #PKH26gl-1kt) according to manufacturer's instructions and cocultured with BMM at ratio of 5:1 in presence of 20 μg/ml h11B3 or control antibody for 16 hours. Phagocytosis was analyzed by flow cytometry."}}}
{"molecule": "B1", "values": [{"measurement": "AML disease (circulating blast cell burden, AML cells in spleen and BM)", "setting": "[1]", "value": "significantly reduced"}, {"measurement": "ADCP activity", "setting": "[2]", "value": "induces ADCP activity"}]}
